B1: minF1; a variant is named by its letters at N, in order (parent)
chain: GAGACCGCAACTGAAAAGTTGTTNNNNAANNNNNGGNTNAATTTCTGCACGTAGAAGCAAAAGGC

Variants of: B1
Assay: fraction ligated after 30 min (ligated reads / total reads); higher = more ligase activity
Conditions: with F1*subA RNA substrate (template-directed ligation), 42 °C
How it was run: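 RNAs for minimized ligase ribozyme variants were transcribed with T7 from PCR-amplified oligo-pool templates and purified on gels. Ligated and unligated species were resolved on gels, converted to cDNA with barcoded primers, and read on a MiSeq with core bases filtered at quality ≥30. Fraction ligated per variant is the ratio of ligated reads to total reads.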

Row | Variant | fraction ligated
1 | ATCGAGATGTG | 0.00673
2 | ATCAAATGATG A28G | 0.00241
3 | ATCAATGTGTG | 0.0057
4 | ATCGTGATGTG | 0.00711
5 | ATCGATGGAGT G35T T38G A40T A41G | 0.00105
6 | ATCATGGATGT A40G | 0.0479
7 | ATCATGGTGTG | 0.00812
8 | ATGATGGATGT | 0.00269
9 | ATCAATGGAGT G35T A40G | 0.0379
10 | ATCAGGATGTG A28G A29T | 0.00511
11 | ATCAAATGAGT A28G G35T | 0.00393
12 | ATCAAATGAGT A28G A40G | 0.00391
13 | ATCAATGAGTG | 0.003
14 | ATCAAAGGATG A28G | 0.0078
15 | ATCAATGGAGT | 0.00569
16 | ATCGAGGATGT | 0.004
17 | ATCGTGGATGT A40G | 0.0919
18 | ATCATGGATGT | 0.00625
19 | ATCAAGGTGTG A28G | 0.00322
20 | ATCGATGGATG | 0.00346
21 | ATCATGATGTG A28G | 0.00487
22 | ATCAATGATGT A40G | 0.0188
23 | ATCAAATATGT A28G | 0.00373

Row | Variant | fraction ligated
24 | ATCAAATGGGT A28G G35T A40G | 0.00694
25 | ATCGGGATGTG | 0.00497
26 | ATCGATGGAGT | 0.00434
27 | ATCAATGGGTG A28G | 0.00605
28 | ATCAATGGAGT A28G A40G | 0.00701
29 | ATCAATGTGTG A28G | 0.00293
30 | ATCAAATGAGT A28G G35T T38G A40T | 0.00229
31 | ATCAATGGAGT G35T T38G A40T | 0.00324
32 | ATCAAGGATTG A28G | 0.00187
33 | ATCGATGGTTG | 0.00328
34 | ATCGAGGAGTG | 0.00378
35 | ATCAAAGGAGT A28G G35T T38G A40T A41G | 0.00104
36 | ATCAAAGGTGT A28G A40G | 0.00781
37 | ATCAATGGTGT A40G | 0.00841
38 | ATCAAGGATGT A40G | 0.0124
39 | ATCAAGGAGTG A28G | 0.00604
40 | ATCAAATGTGT A28G | 0.00203
41 | ATCAATGGAGT A28G G35T T38G A40T | 0.00109
42 | ATCAAATGGGT A28G | 0.00311
43 | ATCAATGATGT | 0.00391
44 | ATCATGGTGTG A28G | 0.00296
45 | ATCGTGGAGTG | 0.00282
46 | ATCATGGATTG | 0.00725

Row | Variant | fraction ligated
47 | ATCGATGGTGT | 0.00463
48 | ATCAATGGAGT A28G G35T | 0.0192
49 | ATCAATGGAGT A40G | 0.00544
50 | ATCAAGGATGT A28G | 0.00393
51 | ATCAATGATGT A28G A40G | 0.0266
52 | ATCAATGGATG A28G | 0.00279
53 | ATCAAGGATGT | 0.00413
54 | ATCGAGGTGTG | 0.00503
55 | ATCAATGGGTG | 0.0045
56 | ATCAAATAGTG A28G | 0.00491
57 | ATCAAATATGT A28G A40G | 0.00354
58 | ATCAAAGGAGT A28G G35T | 0.00323
59 | ATCGAGGATGT A40G | 0.0171
60 | ATGATGGATTG | 0.0074
61 | ATGAGGATGTG A29T | 0.0247
62 | ATCAATGGAGT G35T T38G A40T A41G | 0.00079
63 | ATCGATGAGTG | 0.00373
64 | ATCGATGGAGT A40G | 0.00946
65 | ATCGTGGATTG | 0.0062
66 | ATCAATATGTG A28G | 0.00244
67 | ATCGATGGAGT G35T A40G | 0.0726
68 | ATCAAATGAGT A28G G35T A40G | 0.0046
69 | ATCAATGGATG | 0.00435

Row | Variant | fraction ligated
70 | ATCAAGATGTG A28G | 0.00558
71 | ATCAATGAGTG A28G | 0.00195
72 | ATCGTGGTGTG | 0.00665
73 | ATGAGGATGTG | 0.00387
74 | ATCAAATGGGT A28G G35T | 0.00148
75 | ATCAAATGGGT A28G G35A | 0.00387
76 | ATCGATGGAGT G35T | 0.0345
77 | ATGATGGTGTG | 0.00304
78 | ATCAATGGAGT A28G G35T A40G | 0.0474
79 | ATCAAGGAGTG | 0.00266
80 | ATCAAGATGTG | 0.00503
81 | ATCAATGGAGT A28G | 0.00328
82 | ATCAAAGGGTG A28G | 0.0042
83 | ATCAAATATTG A28G | 0.00289
84 | ATCAAATGGTG A28G | 0.00482
85 | ATCAAAGGTTG A28G | 0.0026
86 | ATCAAATGGGT A28G G35T T38G A40T | 0.00125
87 | ATCAAATGAGT A28G | 0.00227
88 | ATCAGGATGTG A28G | 0.00911
89 | ATCAAGGATTG | 0.00347
90 | ATCGTGGATGT | 0.00561
91 | ATCAATGGTGT | 0.00377
92 | ATCAAATGGGT A28G G35A T38G A40T | 0.000933

Row | Variant | fraction ligated
93 | ATCAATATGTG | 0.00461
94 | ATCATGGATTG A28G | 0.00743
95 | ATCAAGGATGT A28G A40G | 0.0268
96 | ATCAAAGGTGT A28G | 0.00198
97 | ATCGATGTGTG | 0.00321
98 | ATCAATGATGT A28G | 0.00479
99 | ATCAAAGGAGT A28G | 0.00277
100 | ATCATGATGTG | 0.00541
101 | ATCAAAGGAGT A28G A40G | 0.00414
102 | ATCGATGATGT | 0.00439
103 | ATCAATGGAGT G35T | 0.0137
104 | ATCGGGATGTG A29T | 0.045
105 | ATCGAGGATTG | 0.00198
106 | ATCAATGGTTG A28G | 0.00263
107 | ATGATGGAGTG | 0.00146
108 | ATCAATGGTTG | 0.00416
109 | ATCAAAGTGTG A28G | 0.00347
110 | ATCAATGGAGT A28G G35T T38G A40T A41G | 0.00208
111 | ATCAAATGGGT A28G A40G | 0.00524
112 | ATCGATGATGT A40G | 0.0304
113 | ATCAATGATTG | 0.00237
114 | ATCAGGATGTG | 0.00723
115 | ATCAAATGTGT A28G A40G | 0.00666

Row | Variant | fraction ligated
116 | ATCAAGGTGTG | 0.00569
117 | ATGATGATGTG | 0.00356
118 | ATCAATGGTGT A28G | 0.00146
119 | ATCAATGGTGT A28G A40G | 0.00763
120 | ATCAGGATGTG A29T | 0.0416
121 | ATCATGGAGTG A28G | 0.00478
122 | ATCAAAGGAGT A28G G35T A40G | 0.00529
123 | ATCATGGAGTG | 0.00635
124 | ATCGATGGGTG | 0
125 | ATCAAAGGAGT A28G G35T T38G A40T | 0.00242
126 | ATGATGGATGT A40G | 0.0235
127 | ATCGATGATTG | 0.00246
128 | ATCAAATGGGT A28G G35A A40G | 0.00585
129 | ATCATGGATGT A28G | 0.00453
130 | ATCGATGGAGT G35T T38G A40T | 0.0031
131 | ATCATGGATGT A28G A40G | 0.0551
132 | ATCGATATGTG | 0.00384
133 | ATCAAATGTTG A28G | 0.00332
134 | ATCAAATTGTG A28G | 0.00273
135 | ATCGATGGTGT A40G | 0.0134
136 | ATCAATGATTG A28G | 0.00338
